Target: human complement regulatory factor H (hfH) (human, UniProt P08603 19-1231)
Assay: SPR

Sequence of human complement regulatory factor H (hfH) (P08603 19-1231): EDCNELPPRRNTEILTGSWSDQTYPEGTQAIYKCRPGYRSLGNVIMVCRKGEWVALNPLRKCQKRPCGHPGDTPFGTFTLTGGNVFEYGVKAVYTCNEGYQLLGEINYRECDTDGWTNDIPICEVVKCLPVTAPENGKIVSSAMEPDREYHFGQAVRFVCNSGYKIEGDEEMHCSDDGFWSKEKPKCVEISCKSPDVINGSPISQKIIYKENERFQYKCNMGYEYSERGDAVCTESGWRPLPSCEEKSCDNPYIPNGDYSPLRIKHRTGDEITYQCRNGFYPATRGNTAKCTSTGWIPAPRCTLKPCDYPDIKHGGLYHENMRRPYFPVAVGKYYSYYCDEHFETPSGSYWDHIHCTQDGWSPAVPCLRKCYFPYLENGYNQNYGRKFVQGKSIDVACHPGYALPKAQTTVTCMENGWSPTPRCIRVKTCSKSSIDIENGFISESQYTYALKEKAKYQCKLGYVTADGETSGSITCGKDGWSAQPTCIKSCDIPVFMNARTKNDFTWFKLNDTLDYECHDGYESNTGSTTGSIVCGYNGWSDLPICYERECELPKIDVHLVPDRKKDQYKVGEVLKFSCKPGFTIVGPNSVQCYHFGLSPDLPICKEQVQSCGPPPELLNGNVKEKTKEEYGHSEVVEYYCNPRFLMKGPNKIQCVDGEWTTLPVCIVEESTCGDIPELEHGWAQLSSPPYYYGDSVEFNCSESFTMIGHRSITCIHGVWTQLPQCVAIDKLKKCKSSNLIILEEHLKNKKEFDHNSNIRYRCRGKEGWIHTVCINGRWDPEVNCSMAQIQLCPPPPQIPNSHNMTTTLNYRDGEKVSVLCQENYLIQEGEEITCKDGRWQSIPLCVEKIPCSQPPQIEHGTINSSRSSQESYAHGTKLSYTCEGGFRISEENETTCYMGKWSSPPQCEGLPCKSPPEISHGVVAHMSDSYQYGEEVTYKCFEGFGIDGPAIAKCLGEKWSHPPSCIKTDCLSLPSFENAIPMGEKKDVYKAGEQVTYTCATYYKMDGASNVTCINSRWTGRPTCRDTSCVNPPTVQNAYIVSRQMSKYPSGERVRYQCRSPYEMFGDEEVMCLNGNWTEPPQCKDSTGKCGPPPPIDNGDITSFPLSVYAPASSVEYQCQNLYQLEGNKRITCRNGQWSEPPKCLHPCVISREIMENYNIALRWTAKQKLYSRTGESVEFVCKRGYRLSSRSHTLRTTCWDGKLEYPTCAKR

B1: factor H binding protein (fHbp) variant1 (natural protein)
chain: CSSGGGGVAADIGAGLADALTAPLDHKDKGLQSLTLDQSVRKNEKLKLAAQGAEKTYGNGDSLNTGKLKNDKVSRFDFIRQIEVDGQLITLESGEFQVYKQSHSALTAFQTEQIQDSEHSGKMVAKRQFRIGDIAGEHTSFDKLPEGGRATYRGTAFGSDDAGGKLTYTIDFAAKQGNGKIEHLKSPELNVDLAAADIKPDGKRHAVISGSVLYNQAEKGSYSLGIFGGKAQEVAGSAEVKTVNGIRHIGLAAKQ
Kd: 22.7 nM

— PMC9079162 (Computational and Structural Biotechnology Journal, 2022)
